According to PMC11362306:

Biological target: BLIP2 with azF at residue 41 (BLIP2^41azF)
Assay: CNT-FET conductance (I-V); BLIP2 azF variant photochemically attached to p-type SWCNTs of a CNT-FET; BL (or BSA) added in DPBS, to 1.4 μM or stepwise; I-V curves, room temperature; also with 0.5% (w/v) BSA for TEM-1 on BLIP2^213azF

Substance: TEM-1 β-lactamase (from UniProt P62593 24-286) (enzyme)
- conductance increase, fold lower than on BLIP2^213azF devices: 4 fold
